This note sets out measurements from patent publication US20220024991A1 (GENOME PROTECTION, published 2022).

In this assay the target is human TLR5 (293-hTLR5-LacZ reporter cells) (human, UniProt O60602 21-858). Description: cell-based or functional assay.
Sequence of human TLR5 (293-hTLR5-LacZ reporter cells) (O60602 21-858): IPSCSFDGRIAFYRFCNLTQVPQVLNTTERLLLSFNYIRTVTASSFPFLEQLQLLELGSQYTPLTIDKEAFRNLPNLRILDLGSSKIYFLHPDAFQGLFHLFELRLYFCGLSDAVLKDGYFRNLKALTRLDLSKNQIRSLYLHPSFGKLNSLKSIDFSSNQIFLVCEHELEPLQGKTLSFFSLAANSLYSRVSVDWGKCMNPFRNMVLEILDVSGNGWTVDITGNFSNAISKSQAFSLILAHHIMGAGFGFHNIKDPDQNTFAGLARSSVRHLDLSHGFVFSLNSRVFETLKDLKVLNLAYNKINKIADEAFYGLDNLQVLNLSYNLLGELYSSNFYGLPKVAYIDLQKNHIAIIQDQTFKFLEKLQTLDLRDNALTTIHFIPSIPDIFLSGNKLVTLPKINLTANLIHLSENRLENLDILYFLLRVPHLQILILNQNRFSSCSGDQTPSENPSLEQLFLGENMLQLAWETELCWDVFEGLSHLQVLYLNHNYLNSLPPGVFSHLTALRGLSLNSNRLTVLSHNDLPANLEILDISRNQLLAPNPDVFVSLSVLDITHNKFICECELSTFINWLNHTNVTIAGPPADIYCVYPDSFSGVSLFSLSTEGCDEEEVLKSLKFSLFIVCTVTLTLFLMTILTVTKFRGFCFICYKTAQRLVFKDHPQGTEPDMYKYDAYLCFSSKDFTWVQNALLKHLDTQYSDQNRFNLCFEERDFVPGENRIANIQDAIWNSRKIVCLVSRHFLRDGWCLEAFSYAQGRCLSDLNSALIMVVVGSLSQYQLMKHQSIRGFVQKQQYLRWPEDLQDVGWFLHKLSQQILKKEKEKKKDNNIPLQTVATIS

B1: entolimod/CBLB502 (ligand)
chain: not shown
Regarding B1, the “EC50, ng/ml (NF-κB reporter enzyme activity)” value came to 0.032 ng/mL and the “EC50, pM (NF-κB reporter enzyme activity)” value worked out at 0.92 pM.
